Source: patent US20200247855A1, “THERAPY AND DIAGNOSTICS” (OXFORD UNIVERSITY INNOVATION LIMITED, priority 2017, published 2020)

Experiments:
Test in all cases: Yeast surface display (YSD) FACS binding
CXCL12_HUMAN = CXCL12_HUMAN (Homo sapiens, UniProt P48061); details: yeast surface display
Procedure, shortened: (§1)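 Yeast clones displaying tick peptides were re-tested by FACS with labelled chemokine detected by streptavidin-Alexa conjugate. Binding was scored as % of peptide-expressing cells above a background set with streptavidin-Alexa alone, averaged over independent clones. In the screen tables, >3-fold over background mean fluorescence intensity was scored as binding.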

CCL5_HUMAN = target: T1, CCL5_HUMAN (Homo sapiens, UniProt P13501)
T1 sequence (P13501 24-91): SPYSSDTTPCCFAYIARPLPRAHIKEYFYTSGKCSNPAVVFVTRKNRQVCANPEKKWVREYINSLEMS
Procedure, shortened: (§2)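 Yeast clones displaying tick peptides were re-tested by FACS with labelled chemokine. Binding = % of peptide-expressing yeast above a background threshold set with streptavidin-Alexa647 alone; the mean percent shift was used where several clones were isolated. Confirmed binding ("YES") required >3-fold over background mean fluorescence intensity.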

CCL18_HUMAN = target: T2, CCL18_HUMAN (Homo sapiens, UniProt P55774)
T2 sequence (P55774 21-89): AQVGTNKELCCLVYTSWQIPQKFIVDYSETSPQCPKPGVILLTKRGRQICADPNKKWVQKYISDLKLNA
Procedure, shortened: as §2

CCL11_HUMAN = CCL11_HUMAN (Homo sapiens, UniProt P51671)
Sequence of CCL11_HUMAN (P51671 24-97): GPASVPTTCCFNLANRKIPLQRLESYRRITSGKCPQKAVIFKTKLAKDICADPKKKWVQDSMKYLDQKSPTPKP
Procedure, shortened: as §2

CXCL8_HUMAN = target: T3, CXCL8_HUMAN (Homo sapiens, UniProt P10145); parameters: label (chemical); details: yeast surface display
T3 sequence (P10145 21-99): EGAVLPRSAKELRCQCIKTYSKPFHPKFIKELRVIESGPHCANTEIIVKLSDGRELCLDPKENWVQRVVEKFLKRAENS
Procedure, shortened: as §1

CCL17_HUMAN = target: T4, CCL17_HUMAN (Homo sapiens, UniProt Q92583)
T4 sequence (Q92583 24-94): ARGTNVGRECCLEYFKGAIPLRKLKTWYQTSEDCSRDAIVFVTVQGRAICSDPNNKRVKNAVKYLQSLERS
Procedure, shortened: as §2

CCL3_HUMAN = target: T5, CCL3_HUMAN (Homo sapiens, UniProt P10147)
T5 sequence (P10147 24-92): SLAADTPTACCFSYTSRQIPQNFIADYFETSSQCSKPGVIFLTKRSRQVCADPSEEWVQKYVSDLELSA
Procedure, shortened: as §2

CCL20_HUMAN = CCL20_HUMAN (Homo sapiens, UniProt P78556)
Sequence of CCL20_HUMAN (P78556 27-96): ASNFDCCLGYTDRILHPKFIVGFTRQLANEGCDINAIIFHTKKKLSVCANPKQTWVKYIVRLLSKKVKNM
Procedure, shortened: as §2

CCL8_HUMAN = target: T6, CCL8_HUMAN (Homo sapiens, UniProt P80075)
T6 sequence (P80075 24-99): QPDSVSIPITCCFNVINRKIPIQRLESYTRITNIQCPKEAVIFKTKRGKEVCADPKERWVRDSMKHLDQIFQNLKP
Procedure, shortened: as §2

CCL25_HUMAN = target: T7, CCL25_HUMAN (Homo sapiens, UniProt O15444)
T7 sequence (O15444 24-150): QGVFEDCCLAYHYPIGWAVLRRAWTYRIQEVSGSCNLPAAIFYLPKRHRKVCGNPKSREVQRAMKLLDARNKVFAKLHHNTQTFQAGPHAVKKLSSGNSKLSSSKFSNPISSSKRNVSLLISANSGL
Procedure, shortened: as §2

Sequence of CXCL12_HUMAN (P48061 22-93): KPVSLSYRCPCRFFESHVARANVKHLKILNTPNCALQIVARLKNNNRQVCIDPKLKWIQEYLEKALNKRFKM

B1: P1215_AMBPA: tick CKBP, Amblyomma parvum (protein, listed as Amblyomma parvum)
chain: KTDTKNAAGELPPKVVIPGCEDPATTKAPLPDEPPYYGITIDKDGCQRKVLGSSQRQQRKVQNGRKLDGKKRGRRPVFVDLELTVDCKRKCNGTYSQLPDGENCLVSDGYPYGRWGTIKGGCYQGNCSSGQCHRGEKKVNCYLPKNITNDVPKSLNLAE
- Binding to CXCL12_HUMAN, YSD (CXCL12_HUMAN): YES (An arbitrary threshold of >3 fold over background mean fluorescence intensity was chosen to describe confirmed re-tests. Where binding was detected data are indicated as “YES”)
- Binding to CCL5_HUMAN, YSD (CCL5_HUMAN): YES (An arbitrary threshold of >3 fold over background mean fluorescence intensity was chosen to describe confirmed re-tests. Where binding was detected data are indicated as “YES”)
- Binding to CCL18_HUMAN, YSD (CCL18_HUMAN): YES (An arbitrary threshold of >3 fold over background mean fluorescence intensity was chosen to describe confirmed re-tests. Where binding was detected data are indicated as “YES”)
- Binding to CCL11_HUMAN, YSD (CCL11_HUMAN): YES (An arbitrary threshold of >3 fold over background mean fluorescence intensity was chosen to describe confirmed re-tests. Where binding was detected data are indicated as “YES”)

B2: P1030_AMBPA: tick CKBP, Amblyomma parvum (protein, listed as Amblyomma parvum)
chain: GPPSIPGNESIPGCGDAGTTTAPEDNPKHYGTLTDKKGCTLPIIGTWMTAVDHQHLQGTRGERRGPTGKVNLPASCRKNCHGRQEILRDGIPCRKVVGNPKGSKKHLKSGCLRGKCLAGQCVNDGRRISCYVPRNITDTEPTPGLLAE
- Binding to CXCL8_HUMAN, YSD (CXCL8_HUMAN): YES (An arbitrary threshold of >3 fold over background mean fluorescence intensity was chosen to describe confirmed re-tests. Where binding was detected data are indicated as “YES”)
- Binding to CCL5_HUMAN, YSD (CCL5_HUMAN): YES (An arbitrary threshold of >3 fold over background mean fluorescence intensity was chosen to describe confirmed re-tests. Where binding was detected data are indicated as “YES”)
- Binding to CCL17_HUMAN, YSD (CCL17_HUMAN): YES (An arbitrary threshold of >3 fold over background mean fluorescence intensity was chosen to describe confirmed re-tests. Where binding was detected data are indicated as “YES”)
- Binding to CCL11_HUMAN, YSD (CCL11_HUMAN): YES (An arbitrary threshold of >3 fold over background mean fluorescence intensity was chosen to describe confirmed re-tests. Where binding was detected data are indicated as “YES”)
- Binding to CCL3_HUMAN, YSD (CCL3_HUMAN): YES (An arbitrary threshold of >3 fold over background mean fluorescence intensity was chosen to describe confirmed re-tests. Where binding was detected data are indicated as “YES”)
- Binding to CCL20_HUMAN, YSD (CCL20_HUMAN): YES (An arbitrary threshold of >3 fold over background mean fluorescence intensity was chosen to describe confirmed re-tests. Where binding was detected data are indicated as “YES”)
- Binding to CCL8_HUMAN, YSD (CCL8_HUMAN): YES (An arbitrary threshold of >3 fold over background mean fluorescence intensity was chosen to describe confirmed re-tests. Where binding was detected data are indicated as “YES”)

B3: P698_RHISA: tick CKBP, Rhipicephalus sanguineus (protein, listed as Rhipicephalus sanguineus)
chain: NEDDSSDYYDASPMNCSSMSVNSTMGWLSMNCTMSCNGTTFPLSNSTHCFHSYTNLTVQSRMETMTYNCSVGTCSNGTCVENGTTTTCW
- Binding to CCL5_HUMAN, YSD (CCL5_HUMAN): YES (An arbitrary threshold of >3 fold over background mean fluorescence intensity was chosen to describe confirmed re-tests. Where binding was detected data are indicated as “YES”)
- Binding to CCL8_HUMAN, YSD (CCL8_HUMAN): YES (An arbitrary threshold of >3 fold over background mean fluorescence intensity was chosen to describe confirmed re-tests. Where binding was detected data are indicated as “YES”)

B4: P1220_IXORI: tick CKBP, Ixodes ricinus (protein, listed as Ixodes ricinus)
chain: GSTPSAMKTEDILKVLGSTSSLENHTDSSHCRYQELLDITKNIENAGFLAINCQRSCPNGKQTMVEGYGCIFKIKHATKRGKVKVKEGSCRKGACVRGSTRPPWRLLVLLGESKEEEFL
- Binding to CCL25_HUMAN, YSD (CCL25_HUMAN): YES (An arbitrary threshold of >3 fold over background mean fluorescence intensity was chosen to describe confirmed re-tests. Where binding was detected data are indicated as “YES”)

B5: P1011_AMBTR: tick CKBP, Amblyomma triste (protein)
chain: EKDTPKNIPGCEDAGTTAAPPADNPKHYAVYTDKNGCTFKVIGTWMTKEDHRRLPVSLRRVRASSGRVKLPASCQKICKHSVKKFPEGTPCRLVTRDPIKGKNHIKNGCIRGYCSSGVCVSDNRSISCYVLPNNTELTSPSGSFAE
modifications: Amblyomma triste
- Binding to CCL5_HUMAN, YSD (CCL5_HUMAN): YES (An arbitrary threshold of >3 fold over background mean fluorescence intensity was chosen to describe confirmed re-tests. Where binding was detected data are indicated as “YES”)
- Binding to CCL17_HUMAN, YSD (CCL17_HUMAN): YES (An arbitrary threshold of >3 fold over background mean fluorescence intensity was chosen to describe confirmed re-tests. Where binding was detected data are indicated as “YES”)
- Binding to CCL18_HUMAN, YSD (CCL18_HUMAN): YES (An arbitrary threshold of >3 fold over background mean fluorescence intensity was chosen to describe confirmed re-tests. Where binding was detected data are indicated as “YES”)
- Binding to CCL25_HUMAN, YSD (CCL25_HUMAN): YES (An arbitrary threshold of >3 fold over background mean fluorescence intensity was chosen to describe confirmed re-tests. Where binding was detected data are indicated as “YES”)
- Binding to CCL11_HUMAN, YSD (CCL11_HUMAN): YES (An arbitrary threshold of >3 fold over background mean fluorescence intensity was chosen to describe confirmed re-tests. Where binding was detected data are indicated as “YES”)
